Each block holds one molecule with its values, some of them ahead of it. Ends that are not written are not given here.
Tests used:
[1] = biological target: T1, TPR1 domain of the Hop protein (Homo sapiens, UniProt P31948); test: Isothermal titration calorimetry, binding to TPR1 domain of Hop; settings: ITC at 25° C.
T1 construct: Codons 1-118 (TPR1) and 223-352 (TPR2A) of human Hop protein were cloned; hexahistidine (TEV-cleavable) (N, cleaved yes); made in house; host or cells: E. coli BL21 (DE3)
T1 sequence (P31948 1-118): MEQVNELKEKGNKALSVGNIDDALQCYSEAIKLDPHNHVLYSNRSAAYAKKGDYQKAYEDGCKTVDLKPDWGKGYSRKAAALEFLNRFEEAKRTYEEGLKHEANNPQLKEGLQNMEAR
Protocol: (§1) FIG. 6 is a plotting of the thermo-dynamic analysis of the interaction of TPR1 and TPR2A with the C-terminal sequences of Hsp70 and Hsp90. […] The sequence […] corresponds with the 12 C-terminal amino acid residues of Hsc70. […] corresponds with the 12 C-terminal amino acid residues of Hsp90.
(§2) 40-50 aliquots of 5•μl peptide solution (7.5 mM-15 mM) were titrated at 25° C. by injection into a 1.36 ml TPR1 (TPR2A) solution (450•M-950•M) into the chamber. Alternatively, a solution of 3 mM TPR1 (TPR2A) in 180•M C70 (C90) solution was titrated in the chamber. […] Typically, the injections were continued past the saturation limits in order to be able to determine the heat of the ligand solution. After subtracting the solution heat, the calorimetric data was analysed, where an assessment software was used, which is provided by the manufacturer (version 2.9; MicroCal Software, Inc.).

[2] = biological target: T2, TPR2A domain of the Hop protein (Homo sapiens, UniProt P31948); test: Isothermal titration calorimetry, binding to TPR2A domain of Hop; settings: ITC at 25° C.
T2 construct: Codons 1-118 (TPR1) and 223-352 (TPR2A) of human Hop protein were cloned; hexahistidine (TEV-cleavable) (N, cleaved yes); made in house; host or cells: E. coli BL21 (DE3)
T2 sequence (P31948 223-352): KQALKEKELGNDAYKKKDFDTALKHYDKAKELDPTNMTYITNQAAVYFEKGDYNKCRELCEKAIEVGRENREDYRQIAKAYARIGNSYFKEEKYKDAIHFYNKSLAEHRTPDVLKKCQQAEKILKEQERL
Protocol: as §1, §2

[3] = biological target: T3, TPR2A domain of human Hop protein (codons 223-352) (human, UniProt P31948 225-352); test: ITC, 25 °C
T3 construct: Expressed in E. coli, His6 tag cleaved with TEV; A selenomethionine-labelled form was made for MAD phasing; also called TRP2A
T3 sequence (P31948 other isoform, or with tags, fused parts or gaps limits assumed): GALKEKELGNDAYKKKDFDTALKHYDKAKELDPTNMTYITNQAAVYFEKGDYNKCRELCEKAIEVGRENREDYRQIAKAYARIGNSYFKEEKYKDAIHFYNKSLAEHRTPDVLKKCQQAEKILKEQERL
Protocol: as §1
(§3) 40-50 aliquots of 5•μl peptide solution (7.5 mM-15 mM) were titrated at 25° C. by injection into a 1.36 ml TPR1 (TPR2A) solution (450•M-950•M) into the chamber. Alternatively, a solution of 3 mM TPR1 (TPR2A) in 180•M C70 (C90) solution was titrated in the chamber. The peptides were dissolved in and the proteins were dialysed against the buffer G (25 mM, pH 7.5, 100 mM Kac, 5 mM MgAc₂). Typically, the injections were continued past the saturation limits in order to be able to determine the heat of the ligand solution. After subtracting the solution heat, the calorimetric data was analysed, where an assessment software was used, which is provided by the manufacturer (version 2.9; MicroCal Software, Inc.).

[4] = biological target: T4, TPR1 domain of human Hop protein (codons 1-118) (human, UniProt P31948 4-118); test: ITC, 25 °C
T4 construct: Expressed in E. coli with a removable N-terminal His6 tag, which was cleaved with TEV; It could not be checked that the entry is exactly residues 1-118; also called N-terminal TPR domain of Hop
T4 sequence (P31948 other isoform, or with tags, fused parts or gaps limits assumed): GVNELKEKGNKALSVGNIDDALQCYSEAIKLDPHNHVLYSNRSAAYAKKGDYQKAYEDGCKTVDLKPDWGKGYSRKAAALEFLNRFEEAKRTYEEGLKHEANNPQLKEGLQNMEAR
Protocol: as §1, §3

binding to TPR1, result in words [1]: same affinities
Molecule: GSGGPTIEEVD [Hsc70 Dodekamer, peptide of the 12 C-terminal amino acid residues of Hsc70]

stoichiometry N ([1]; binding to TPR1, listed as 25 kDa fragment of human Hsp70): ~1
Molecule: C70: C-terminal fragment of human Hsp70 (codons 382-641), 25 kDa domain

stoichiometry factor [2]: ~1
binding to TPR1, result in words [1]: weak, non-specific binding
Molecule: C90: C-terminal domain of human Hsp90 (codons 625-732), 12 kDa fragment including dimerisation domain and authentic C-terminal

binding to TPR1, result in words [1]: same affinities
Molecule: GASSGPTIEEVD [Hsp70 Dodekamer, C-terminal dodecamer of Hsp70]

Kd [3]: 90 µM
Kd [4]: ~300 µM
Molecule: Ac-EEVD (also called EEVD peptide; EEVD motif) [tetrapeptide EEVD]

fold increase in affinity (against the EEVD motif alone) [4]: 20 fold
Molecule: Ac-GPTIEEVD (also called structured octamer peptide) [Hsp70 peptide GPTIEEVD]

Kd [4]: 15 to 20 µM
Molecule: Ac-PTIEEVD [C-terminal heptamer peptide of Hsc70]
